According to article PMC7793301, “Assembly of infectious enteroviruses depends on multiple, conserved genomic RNA-coat protein contacts” (PLoS Pathogens, 2020):

T1: EV-E capsid protein VP1 (enterovirus-E (EV-E), UniProt P12915 560-840)
T1 construct: VP1, cut product of the enterovirus-E (formerly bovine enterovirus) polyprotein; genome NC_001859; numbers count on: the mature VP1; The N-terminal arm is not fully built in the model; source: EV-E propagated in BHK cells; virions purified (sucrose cushion, sucrose gradient)
T1 sequence: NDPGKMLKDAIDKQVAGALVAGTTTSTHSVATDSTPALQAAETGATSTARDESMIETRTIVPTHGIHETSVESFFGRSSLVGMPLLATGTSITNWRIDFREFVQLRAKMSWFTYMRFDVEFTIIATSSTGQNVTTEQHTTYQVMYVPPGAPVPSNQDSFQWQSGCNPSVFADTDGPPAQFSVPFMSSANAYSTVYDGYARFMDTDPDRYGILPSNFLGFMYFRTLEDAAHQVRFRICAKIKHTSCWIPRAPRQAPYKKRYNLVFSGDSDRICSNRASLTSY

B1: EV-E capsid protein VP2 (natural protein)
chain: SPSAEACGYSDRVAQLTLGNSTITTQEAANICVAYGCWPAKLSDTDATSVDKPTEPGVSADAFYTLRSKPWQADSKGWYWKLPDALNNTGMFGQNAQFHYIYRGGWAVHVQCNATKFHQGTLLVLAIPEHQIATQEQPAFDRTMPGSEGGTFQEPFWLEDGTSLGNSLIYPHQWINLRTNNSATLILPYVNAIPMDSAIRHSNWTLAIIPVAPLKYAAETTPLVPITVTIAPMETEYNGLRRAIASNQ
notes: VP2, cut product of VP0 of the enterovirus-E polyprotein; genome NC_001859; modelled from residue Y9; numbers count on: the mature VP2; source: EV-E propagated in BHK cells; virions purified (sucrose cushion, sucrose gradient)

Tests used:
EV-E capsid protein VP1 = target: T1, EV-E capsid protein VP1; test: cryo-EM structure; purified EV-E virions in PBS; single particle analysis with icosahedral symmetry, ~2.2 Å; also symmetry expansion and focused classification; conditions: both partners purified
EV-E capsid protein VP2 = target: B1; test: as above; conditions: both partners purified

Binder	binding result (EV-E capsid protein VP1)	binding result (EV-E capsid protein VP2)
B1	binds	
EV-E capsid protein VP3 (natural protein, VP3, cut product of the enterovirus-E polyprotein; genome NC_001859; numbers count on: the mature VP3; source: EV-E propagated in BHK cells; virions purified (sucrose cushion, sucrose gradient)) GLPTKPGPGSYQFMTTDEDCSPCILPDFQPTLEIFIPGKVNNLLEIAQVESILEANNREGVEGVERYVIPVSVQDALDAQIYALRLELGGSGPLSSSLLGTLAKHYTQWSGSVEITCMFTGTFMTTGKVLLAYTPPGGDMPRNREEAMLGTHVVWDFGLQSSITLVIPWISASHFRGVSNDDVLNYQYYAAGHVTIWYQTNMVIPPGFPNTAGIIMMIAAQPNFSFRIQKDREDMTQTAILQ	binds	binds
